The values below come from patent US20260250737A1, “Engineered Luciferases and Luciferin Substrates” (Monod Bio, Inc., priority 2023, published 2026).

The subject of the experiment is SmLux. The experiment is described as follows: Computationally generated LgLux variants expressed in E. coli, tested in lysates with SmLux and substrate 1c. The settings on record: 50 uM substrate 1c; for Fold change upon SmLux peptide addition: 20 uM SmLux; for Baseline Signal (Normalized by expression): before SmLux peptide addition. It counts as biochemical. On the procedure: LgLux sequences were designed computationally, and their activity measured as depicted schematically in FIG. 45.
A library of the computationally generated LgLux variants were expressed in E. coli and tested in lysates. 20 uM of SmLux and 50 uM of substrate 1c was used for the screening.
LgLux_4039 sequence is as set forth in SEQ ID NO:2773. MBIO-5103 through MBIO-5124, MBIO-5261 through MBIO-5295, MBIO-5101, and MBIO-5102 (SEQ ID NO:2815-SEQ ID NO:2873, respectively) are computationally generated LgLux. The sequences and activity of these LgLux are shown below in Table 21.
MBIO-5358 and MBIO-5360 through MBIO-5381 (SEQ ID NO:2774-SEQ ID NO:2796, respectively) are computationally generated LgLux.

B1: 5287 (protein)
chain: MTPEAIRENVRAFYAALASGDWAAAKALFDPGVTITLWDGTTFTSVEEFRAWFEKQFKTSKDALREIVSMEVEGDVVRVLVRLTFVRDGKEQVVDLLQLFKFV
On to B1, for which the “Fold change upon SmLux peptide addition” value worked out at 1.1 and the “Baseline Signal (Normalized by expression)” value was 174.8.

B2: 5293 (protein)
chain: MTPEEIRANVRRFYAALASGDLATAEALFDPGVTITLWDGTTFTSVAEFRAWFEKQFKTSKDALREIESMEIEGDTVRVLVRLTFVRDGKEQVVDLLQLFKFV
Turning to B2, the “Fold change upon SmLux peptide addition” value is given as 3.78 and the “Baseline Signal (Normalized by expression)” value was found to be 166.2.

B3: 5291 (protein)
chain: MTPEEIRENVRRFYAALASGDLETAKALFDPGVTITLWDGTTFTSVEEFRAWFEEQFQTSKDALREIVSMEIEGDVVRVLVRLTFVRDGKEEVVDLLQLFKFV
On to B3, for which the “Fold change upon SmLux peptide addition” value is reported as 1.02 and the “Baseline Signal (Normalized by expression)” value was 170.2.

B4: 5295 (protein)
chain: MTPEEIRANVRAFYAALASGDLAAAKALFDPGVTITLWDGTTFTSVEEFRAWFEEQFETSKDALREIVSMEVEGDTVRVLVRLTFTRNGEEKVVDLLQLFKFV
Consider B4, for which the “Fold change upon SmLux peptide addition” value is given as 1.28 and the “Baseline Signal (Normalized by expression)” value amounted to 186.4.

B5: 5288 (protein)
chain: MTPEAIIANVKAFYAALASGDLAAAKALFDPGVTITLWDGTTFTSVEEFRAWFEEQFKTSKDALREIESMEVEGDTVRVLVRLTFVRDGKEEVVDLLQLFKFV
As to B5, the “Fold change upon SmLux peptide addition” value amounted to 1.6 and the “Baseline Signal (Normalized by expression)” value is given as 170.8.

B6: 5289 (protein)
chain: MTPEEIRANVERFYAALASGDLAAAKALFDPGVTITLWDGTTFTSVEEFRAWFEEQFQTSKDALREIVSMEIDGDTVRVLVRLTFVRDGEEQEVDLLQLFKFV
As for B6, the “Fold change upon SmLux peptide addition” value was determined as 1.92 and the “Baseline Signal (Normalized by expression)” value is listed as 173.8.

B7: 5116 (protein)
chain: MTPEEIRANVERFYAALASGDLDTAKALFDPGTTITLWDGTTFTSLEEFLAWFEKQFKASKDAKREIVELEIEGNVVRVLVRLTYVKDGKEQVVDLLQLLKFV
Take B7: the “Fold change upon SmLux peptide addition” value is 1.11 and the “Baseline Signal (Normalized by expression)” value amounted to 162.6.

B8: 5105 (protein)
chain: MTPEEIIANVKKFYEALASGDLATAKSLFDPGTTITLWDGTTFTSLEEFLAWFEKQFKASKDAKREIVSIEVDGNVVKVLVRLTYTVDGKEKVVDLLQLLKFV
As to B8, the “Fold change upon SmLux peptide addition” value is reported as 1 and the “Baseline Signal (Normalized by expression)” value is reported as 167.4.

B9: 5114 (protein)
chain: MTPEEIIANVKNFYAALASGDLEAAKALFDPGTTITLWDGTTFTSLEEFLAWFEKQFKASKDAKREIVSMEVEGNVVKVLVRLTYTVDGEEKVVDLLQLLKFV
Take B9: the “Fold change upon SmLux peptide addition” value amounted to 1.38 and the “Baseline Signal (Normalized by expression)” value stood at 271.8.

B10: 5110 (protein)
chain: MTPEEIIENVKKFYEALASGDLETAKSLFDPGTTITLWDGTTFTSLEEFLEWFEKQFEASKDAKREILSIEVEGNVVKVLVRLTYTKDGKEKVVDLLQLLKFV
As to B10, the “Fold change upon SmLux peptide addition” value was 0.97 and the “Baseline Signal (Normalized by expression)” value was determined as 167.6.

B11: 5118 (protein)
chain: MTPEEIIANVKAFYAALASGDLAAAKALFDPGTTITLWDGTTFTSLDEFLAWFEKQFKASKDAKREILDIEVEGDVVRVLVRLTYTVDGKEKVVDLLQLLKFV
Take B11: the “Fold change upon SmLux peptide addition” value amounted to 1.05 and the “Baseline Signal (Normalized by expression)” value is listed as 152.

B12: 5106 (protein)
chain: MTEEEIIANVEKFYAALASGDLETAKALFDPGTTITLWDGTTFTSLEEFLAWFEKQFKASKDAKREIVSIEVEGDTVKVLVRLTYTVDGKEKVVDLLQLLKFV
With B12, the “Fold change upon SmLux peptide addition” value was found to be 1 and the “Baseline Signal (Normalized by expression)” value was determined as 169.8.

B13: 5115 (protein)
chain: MTPEEIIANVKKFYAALASGDLETAKALFDPGTTITLWDGTTFTSLEEFLAWFEKQFEASKDAKREIVSIEVKGNTVKVLVRLTYVKDGKEQVVDLLQLLKFV
Turning to B13, the “Fold change upon SmLux peptide addition” value is on record as 3.07 and the “Baseline Signal (Normalized by expression)” value amounted to 165.

B14: 5292 (protein)
chain: MTPEEIIENVKNFYAALASGDLEKAKALFDPGVTITLWDGTTFTSVEEFRKWFEEQFKTSKDALREIKSIEVEGDVVRVLVRLTFVRDGEVQEVDLLQLFKFV
Regarding B14, the “Fold change upon SmLux peptide addition” value came out at 6.75 and the “Baseline Signal (Normalized by expression)” value worked out at 168.6.

B15: 5111 (protein)
chain: MTPEEIRANVEAFYAALASGDLEAAKALFDPGTTITLWDGTTFTSLEEFLAWFEKQFETSKDAKREIVSLEIEGDTVRVLVRLTYTKNGEVKEVDLLQLLKFV
Consider B15, for which the “Fold change upon SmLux peptide addition” value is reported as 1.01 and the “Baseline Signal (Normalized by expression)” value was 166.2.

B16: 5119 (protein)
chain: MTPEQIRANVERFYAALASGDLETAKALFDPGTTITLWDGTTFTSLEEFLAWFEKQFKASKDAKREIVSLEIEGDTVRVLVRLTYTVDGEVKEVDLLQLLKFV
With B16, the “Fold change upon SmLux peptide addition” value is on record as 0.98 and the “Baseline Signal (Normalized by expression)” value amounted to 155.6.

B17: 5107 (protein)
chain: MTPEEIKANVEAFYAALASGDLEKAKALFDPGTTITLWDGTTFTSLEEFLAWFEKQFKASKDAKREIVSMKVEGDTVRVLVRLTYTKDGKEQVVDLLQLIKVV
For B17, the “Fold change upon SmLux peptide addition” value was found to be 0.99 and the “Baseline Signal (Normalized by expression)” value is reported as 167.8.

B18: 5112 (protein)
chain: MTPEEIRANVRAFYAALASGDLEAAKALFDPGTTITLWDGTTFTSLEEFLAWFEKQFKASKDAKREIVSLEVEGDVVRVLVRLTYVKDGKEEVVDLLQLLKFV
For the molecule B18, the “Fold change upon SmLux peptide addition” value was determined as 0.93 and the “Baseline Signal (Normalized by expression)” value came to 174.4.

B19: 5113 (protein)
chain: MTPEEIRANVEAFYAALASGDLEAAKALFDPGTTITLWDGTTFTSLEEFLAWFEKQFEASKDAKREILSLEIEGNTVRVLVRLTYTKDGKEQVVDLLQLLKFV
B19: the “Fold change upon SmLux peptide addition” value is recorded as 1.15 and the “Baseline Signal (Normalized by expression)” value was 180.6.

B20: 5117 (protein)
chain: MTDEEIRANVRAFYAALASGDLETAKALFDPGTTITLWDGTTFTSLEEFLAWFEKQFKTSKDAKREIVSLEVEGDTVRVLVRLTYTKDGKEEVVDLLQLLKFV
For the molecule B20, the “Fold change upon SmLux peptide addition” value is reported as 1.05 and the “Baseline Signal (Normalized by expression)” value turned out to be 154.8.

B21: 5109 (protein)
chain: MTPEEIRANVKAFYAALASGDLEKAKALFDPGTTITLWDGTTFTSLEEFLAWFEKQFKASKDAKREIVSMEINGDTVRVLVRLTYTVDGEEKVVDLLQLLKFV
For B21, the “Fold change upon SmLux peptide addition” value was 0.98 and the “Baseline Signal (Normalized by expression)” value was found to be 169.

B22: 5102 (protein)
chain: MSEEQIRQNLRRFYEALDSGDAITAASLFDPGVTITLWDGTTFTSVEEFREWFESQFSTSKDALREISSLEVRGDTVEVTVRLSFTRNGQKHTVDLLQLFKFVGNRVVADRVYVNPTG
Regarding B22, the “Fold change upon SmLux peptide addition” value was determined as 2.2 and the “Baseline Signal (Normalized by expression)” value came out at 2169.2.

B23: 5294 (protein)
chain: MTPEEIRANVRAFYAALASGDLEAAKALFDPGVTITLWDGTTFTSVEEFRAWFEEQFQTSKDALREIESLEVEGDVVRVLVRLTFTRDGKVEEVDLLQLFKFV
As for B23, the “Fold change upon SmLux peptide addition” value was 1.46 and the “Baseline Signal (Normalized by expression)” value is given as 175.2.

B24: 5101 (protein)
chain: MSEEQIRQNLRRFYEALDSGDAITAASLFDPGVTITLWDGTTFTSVEEFREWFESQFSTSKDALREISSLEVRGDTVEVTVRLSFTRNGQKHTVDLLQLFKFVGGGGGGNRVVADRVYVNPTG
As to B24, the “Fold change upon SmLux peptide addition” value amounted to 0.87 and the “Baseline Signal (Normalized by expression)” value worked out at 229.6.

B25: 5108 (protein)
chain: MTPEEIIENVKAFYAALASGDLEAAKALFDPGTTITLWDGTTFTSLEEFLEWFEKQFEASKDAKREIKSIEVEGNVVKVLVRLTYVKDGKEKVVDLLQLLKFV
B25: the “Fold change upon SmLux peptide addition” value is recorded as 0.92 and the “Baseline Signal (Normalized by expression)” value amounted to 167.4.

B26: 5290 (protein)
chain: MTPEEIIENVRRFYAALASGDLETAKSLFDPGVTITLWDGTTFTSVEEFRAWFEAQFQTSKDALREIVSIEVEGDVVRVLVRLTFTRDGQTQEVDLLQLFKFV
On to B26, for which the “Fold change upon SmLux peptide addition” value came out at 1.11 and the “Baseline Signal (Normalized by expression)” value was found to be 162.2.
